Measurements reported in patent US20100167357A1 (CELLECTIS, published 2010).

Assays:
[1] = target: T1, M3 E8K K96E
T1 chain: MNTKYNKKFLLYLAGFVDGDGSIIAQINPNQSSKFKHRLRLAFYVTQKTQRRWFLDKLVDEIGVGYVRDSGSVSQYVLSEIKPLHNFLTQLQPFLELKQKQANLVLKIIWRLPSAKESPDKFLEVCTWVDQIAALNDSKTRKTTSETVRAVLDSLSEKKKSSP

[2] = target: T2, M3 E8K E61R
T2 chain: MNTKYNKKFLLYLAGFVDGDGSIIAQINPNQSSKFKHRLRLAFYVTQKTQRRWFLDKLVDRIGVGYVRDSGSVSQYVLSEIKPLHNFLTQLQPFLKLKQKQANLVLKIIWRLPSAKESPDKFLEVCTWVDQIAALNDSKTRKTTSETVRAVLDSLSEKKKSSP

[3] = target: T3, D137R RAG1.10.3 cutter (M3 D137R)
T3 chain: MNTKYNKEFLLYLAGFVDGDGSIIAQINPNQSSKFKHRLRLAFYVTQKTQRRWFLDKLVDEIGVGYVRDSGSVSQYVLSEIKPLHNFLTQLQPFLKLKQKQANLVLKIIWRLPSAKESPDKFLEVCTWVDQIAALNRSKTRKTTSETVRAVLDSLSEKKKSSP

[4] = target: T4, M3 K7E E61R
T4 chain: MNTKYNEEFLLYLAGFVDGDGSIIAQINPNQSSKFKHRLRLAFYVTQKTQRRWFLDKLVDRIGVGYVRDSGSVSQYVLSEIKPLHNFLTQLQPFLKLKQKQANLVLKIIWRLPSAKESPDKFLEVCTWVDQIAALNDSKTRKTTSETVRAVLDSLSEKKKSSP

[5] = target: T5, R51D RAG1.10.3 cutter (M3 R51D)
T5 chain: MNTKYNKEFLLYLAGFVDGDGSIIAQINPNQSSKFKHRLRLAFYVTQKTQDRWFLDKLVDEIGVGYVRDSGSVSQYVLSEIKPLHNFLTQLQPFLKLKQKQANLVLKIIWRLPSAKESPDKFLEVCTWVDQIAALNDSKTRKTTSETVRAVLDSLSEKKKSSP

[6] = target: T6, M3 K7E K96E
T6 chain: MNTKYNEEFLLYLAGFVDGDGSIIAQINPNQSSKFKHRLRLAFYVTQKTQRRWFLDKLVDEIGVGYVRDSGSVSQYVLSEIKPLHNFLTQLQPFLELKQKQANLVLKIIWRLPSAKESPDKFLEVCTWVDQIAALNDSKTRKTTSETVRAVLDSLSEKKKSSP

[7] = target: T7, QAN-B3 (QAN with K7E, F54G, L58M, K96E), His tag removed, co-expressed from pCDFDuet1
T7 chain: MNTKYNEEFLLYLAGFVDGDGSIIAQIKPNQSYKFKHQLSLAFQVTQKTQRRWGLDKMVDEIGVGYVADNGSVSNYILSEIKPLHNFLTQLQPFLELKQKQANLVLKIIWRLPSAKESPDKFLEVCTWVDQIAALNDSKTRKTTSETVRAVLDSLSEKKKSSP

[8] = target: the molecule itself; assay: analytical ultracentrifugation of the individually expressed protein (monomer plus higher aggregates seen)
Procedure: To check the oligomeric status of the purified designed enzymes, their size profiles was measured by analytical ultracentrifugation (FIG. 6). In the case of individually-expressed A1, A2, B3 and B4 proteins, the appearance of the expected monomeric enzyme was observed. However, higher molecular weight aggregates were also detected, including trimers and tetramers (FIG. 6B; only KTG-A2 and QAN-B3 are shown, although similar results were obtained with the other designs). Therefore the designed enzymes were indeed unable to homodimerise, and this may have affected their stability and aggregation properties during purification.

[9] = target: T8, KTG-B3 (KTG with the B3 interface: K7E, F54G, L58M, K96E)
T8 chain: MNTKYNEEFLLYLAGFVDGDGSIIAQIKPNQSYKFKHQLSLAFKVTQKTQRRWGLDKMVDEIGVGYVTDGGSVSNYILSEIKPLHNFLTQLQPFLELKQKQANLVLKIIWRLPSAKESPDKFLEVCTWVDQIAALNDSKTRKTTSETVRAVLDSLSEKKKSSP

B1: D137R RAG1.10.3 cutter (M3 D137R) (protein)
chain: MNTKYNKEFLLYLAGFVDGDGSIIAQINPNQSSKFKHRLRLAFYVTQKTQRRWFLDKLVDEIGVGYVRDSGSVSQYVLSEIKPLHNFLTQLQPFLKLKQKQANLVLKIIWRLPSAKESPDKFLEVCTWVDQIAALNRSKTRKTTSETVRAVLDSLSEKKKSSP
- cleavage of the palindromic RAG1.10.3 target, direct repeat recombination (LacZ) assay in yeast: no cleavage of the RAG1.10.2 and RAG1.10.3 targets was visible

B2: M2 K7E E61R (protein)
chain: MNTKYNEEFLLYLAGFVDGDGSIIAQIKPRQSNKFKHQLSLAFAVTQKTQRRWFLDKLVDRIGVGYVYDSGSVSDYRLSEIKPLHNFLTQLQPFLKLKQKQANLVLKIIWRLPSAKESPDKFLEVCTWVDQIAALNDSKTRKTTSETVRAVLDSLSEKKKSSP
- cleavage of the RAG1.10 target, yeast screening assay (OH1) [1]: They have a strong cleavage activity toward the RAG1.10 target equivalent to the M2/M3 heterodimer activity, while they display almost non detectable homodimeric activities.

B3: M2 K7E K96E (protein)
chain: MNTKYNEEFLLYLAGFVDGDGSIIAQIKPRQSNKFKHQLSLAFAVTQKTQRRWFLDKLVDEIGVGYVYDSGSVSDYRLSEIKPLHNFLTQLQPFLELKQKQANLVLKIIWRLPSAKESPDKFLEVCTWVDQIAALNDSKTRKTTSETVRAVLDSLSEKKKSSP
- cleavage of the RAG1.10 target, yeast screening assay (OH3) [2]: They have a strong cleavage activity toward the RAG1.10 target equivalent to the M2/M3 heterodimer activity, while they display almost non detectable homodimeric activities.

B4: R51D RAG1.10.2 cutter (M2 R51D) (protein)
chain: MNTKYNKEFLLYLAGFVDGDGSIIAQIKPRQSNKFKHQLSLAFAVTQKTQDRWFLDKLVDEIGVGYVYDSGSVSDYRLSEIKPLHNFLTQLQPFLKLKQKQANLVLKIIWRLPSAKESPDKFLEVCTWVDQIAALNDSKTRKTTSETVRAVLDSLSEKKKSSP
- cleavage of the RAG1.10 target, direct repeat recombination (LacZ) assay in yeast [3]: resulted in an efficient cleavage of the RAG1.10 target while no cleavage of the RAG1.10.2 and RAG1.10.3 targets was visible
- cleavage of the palindromic RAG1.10.2 target, direct repeat recombination (LacZ) assay in yeast: no cleavage of the RAG1.10.2 and RAG1.10.3 targets was visible

B5: M2 E8K K96E (protein)
chain: MNTKYNKKFLLYLAGFVDGDGSIIAQIKPRQSNKFKHQLSLAFAVTQKTQRRWFLDKLVDEIGVGYVYDSGSVSDYRLSEIKPLHNFLTQLQPFLELKQKQANLVLKIIWRLPSAKESPDKFLEVCTWVDQIAALNDSKTRKTTSETVRAVLDSLSEKKKSSP
- cleavage of the RAG1.10 target, yeast screening assay (OH4) [4]: They have a strong cleavage activity toward the RAG1.10 target equivalent to the M2/M3 heterodimer activity, while they display almost non detectable homodimeric activities.

B6: D137R RAG1.10.2 cutter (M2 D137R) (protein)
chain: MNTKYNKEFLLYLAGFVDGDGSIIAQIKPRQSNKFKHQLSLAFAVTQKTQRRWFLDKLVDEIGVGYVYDSGSVSDYRLSEIKPLHNFLTQLQPFLKLKQKQANLVLKIIWRLPSAKESPDKFLEVCTWVDQIAALNRSKTRKTTSETVRAVLDSLSEKKKSSP
- cleavage of the RAG1.10 target, direct repeat recombination (LacZ) assay in yeast [5]: leads also to the formation of an obligatory heterodimer, which is yet less active than the precedent one on the RAG1.10 target

B7: M2 E8K E61R (protein)
chain: MNTKYNKKFLLYLAGFVDGDGSIIAQIKPRQSNKFKHQLSLAFAVTQKTQRRWFLDKLVDRIGVGYVYDSGSVSDYRLSEIKPLHNFLTQLQPFLKLKQKQANLVLKIIWRLPSAKESPDKFLEVCTWVDQIAALNDSKTRKTTSETVRAVLDSLSEKKKSSP
- cleavage of the RAG1.10 target, yeast screening assay (OH2) [6]: They have a strong cleavage activity toward the RAG1.10 target equivalent to the M2/M3 heterodimer activity, while they display almost non detectable homodimeric activities.

B8: KTG-A2 (KTG with K7R, E8R, F54W, E61R, K96R, L97F) (enzyme)
chain: MNTKYNRRFLLYLAGFVDGDGSIIAQIKPNQSYKFKHQLSLAFKVTQKTQRRWWLDKLVDRIGVGYVTDGGSVSNYILSEIKPLHNFLTQLQPFLRFKQKQANLVLKIIWRLPSAKESPDKFLEVCTWVDQIAALNDSKTRKTTSETVRAVLDSLSEKKKSSP
notes: Designed monomer; Expressed with a His tag from pET-series plasmid pCLS1211
- in vitro cleavage of linearized plasmid DNA targets (agarose gel) [7]: clear specific cleavage of the heterodimer DNA target (gtt/agg) and barely of the homodimeric targets (cct/agg and gtt/aac; FIG. 7A) was observed
- binding result [8]: no binding

B9: QAN-A1 (QAN with the A1 interface: K7R, E8R, E61R, K96R, L97F; Phe kept at position 54) (enzyme)
chain: MNTKYNRRFLLYLAGFVDGDGSIIAQIKPNQSYKFKHQLSLAFQVTQKTQRRWFLDKLVDRIGVGYVADNGSVSNYILSEIKPLHNFLTQLQPFLRFKQKQANLVLKIIWRLPSAKESPDKFLEVCTWVDQIAALNDSKTRKTTSETVRAVLDSLSEKKKSSP
notes: Purified by His tag when expressed alone
- in vitro cleavage of linearized plasmid DNA targets (agarose gel) [9]: specific cleavage of the heterodimer, but at reduced level compared to the KTG-A2/QAN-B3 combination
- binding result [8]: no binding

B10: QAN-B3 (QAN with K7E, F54G, L58M, K96E), individually expressed and purified (enzyme)
chain: MNTKYNEEFLLYLAGFVDGDGSIIAQIKPNQSYKFKHQLSLAFQVTQKTQRRWGLDKMVDEIGVGYVADNGSVSNYILSEIKPLHNFLTQLQPFLELKQKQANLVLKIIWRLPSAKESPDKFLEVCTWVDQIAALNDSKTRKTTSETVRAVLDSLSEKKKSSP
notes: Designed monomer; His-tagged form from pET-series plasmid pCLS1214, purified on a nickel column
- binding result [8]: no binding

B11: KTG-B3 (KTG with the B3 interface: K7E, F54G, L58M, K96E) (enzyme)
chain: MNTKYNEEFLLYLAGFVDGDGSIIAQIKPNQSYKFKHQLSLAFKVTQKTQRRWGLDKMVDEIGVGYVTDGGSVSNYILSEIKPLHNFLTQLQPFLELKQKQANLVLKIIWRLPSAKESPDKFLEVCTWVDQIAALNDSKTRKTTSETVRAVLDSLSEKKKSSP
notes: as for B9
- binding result [8]: no binding

B12: QAN-B4 (QAN with the B4 interface: B3 mutations K7E, F54G, L58M, K96E plus Glycine at position 97) (enzyme)
chain: MANTKYNEEFLLYLAGFVDGDGSIIAQIKPNQSYKFKHQLSLTFQVTQKTQRRWGLDKMVDEIGVGYVADNGSVSNYILSEIKPLHNFLTQLQPFLEGKQKQANLVLKIIEQLPSAKESPDKFLEVCTWVDQIAALNDSKTRKTTSETVRAVLDSLSEKKKSSPAAALEHHHHHH
notes: as for B9
- binding result [8]: no binding
